Biological target: Tar-1 all-L NBD peptide (Escherichia coli)
Test: FRET in PE/PG (7:3 w/w) SUV, NBD donor and rhodamine-TAMRA acceptor, acceptor-to-lipid ratio 1:7500

B1: Tar-1 diastereomeric rhodamine peptide (peptide)
peptide: KKKMVLGVFALLQLISGSLKK
modifications: not checked
Question: Which energy transfer does the source give for B1 here?
Answer: Its energy transfer is 30%.

Source: US20080096809A1
